B1: Myc-USP5 [not stated] / Flag-IRF3 [not stated] (parent complex)
chain 1: MAELSEEALLSVLPTIRVPKAGDRVHKDECAFSFDTPESEGGLYICMNTFLGFGKQYVERHFNKTGQRVYLHLRRTRRPKEEDPATGTGDPPRKKPTRLAIGVEGGFDLSEEKFELDEDVKIVILPDYLEIARDGLGGLPDIVRDRVTSAVEALLSADSASRKQEVQAWDGEVRQVSKHAFSLKQLDNPARIPPCGWKCSKCDMRENLWLNLTDGSILCGRRYFDGSGGNNHAVEHYRETGYPLAVKLGTITPDGADVYSYDEDDMVLDPSLAEHLSHFGIDMLKMQKTDKTMTELEIDMNQRIGEWELIQESGVPLKPLFGPGYTGIRNLGNSCYLNSVVQVLFSIPDFQRKYVDKLEKIFQNAPTDPTQDFSTQVAKLGHGLLSGEYSKPVPESGDGERVPEQKEVQDGIAPRMFKALIGKGHPEFSTNRQQDAQEFFLHLINMVERNCRSSENPNEVFRFLVEEKIKCLATEKVKYTQRVDYIMQLPVPMDAALNKEELLEYEEKKRQAEEEKMALPELVRAQVPFSSCLEAYGAPEQVDDFWSTALQAKSVAVKTTRFASFPDYLVIQIKKFTFGLDWVPKKLDVSIEMPEELDISQLRGTGLQPGEEELPDIAPPLVTPDEPKGSLGFYGNEDEDSFCSPHFSSPTSPMLDESVIIQLVEMGFPMDACRKAVYYTGNSGAEAAMNWVMSHMDDPDFANPLILPGSSGPGSTSAAADPPPEDCVTTIVSMGFSRDQALKALRATNNSLERAVDWIFSHIDDLDAEAAMDISEGRSAADSISESVPVGPKVRDGPGKYQLFAFISHMGTSTMCGHYVCHIKKEGRWVIYNDQKVCASEKPPKDLGYIYFYQRVAS
chain 2: MGTPKPRILPWLVSQLDLGQLEGVAWVNKSRTRFRIPWKHGLRQDAQQEDFGIFQAWAEATGAYVPGRDKPDLPTWKRNFRSALNRKEGLRLAEDRSKDPHDPHKIYEFVNSGVGDFSQPDTSPDTNGGGSTSDTQEDILDELLGNMVLAPLPDPGPPSLAVAPEPCPQPLRSPSLDNPTPFPNLGPSENPLKRLLVPGEEWEFEVTAFYRGRQVFQQTISCPEGLRLVGSEVGDRTLPGWPVTLPDPGMSLTDRGVMSYVRHVLSCLGGGLALWRAGQWLWAQRLGHCHTYWAVSEELLPNSGHGPDGEVPKDKEGGVFDLGPFIVDLITFTEGSGRSPRYALWFCVGESWPQDQPWTKRLVMVKVVPTCLRALVEMARVGGASSLENTVDLHISNSHPLSLTSDQYKAYLQDLVEGMDFQGPGES

Variants of: B1
Test: in situ PLA; HEK293T cells co-transfected for 24 h, then infected with SeV (0.1 MOI) for 6 h; parent: 12; read off a plot
In the case of chain 1 C335A, the response is reported as roughly 12 complex number/cell.

Source: article PMC11737852 (2025)
